Results from patent US20180244785A1 (MERRIMACK PHARMACEUTICALS, published 2018).
Where “and” joins values, the source holds several entries; their conditions need not be identical. Equal values may be shown once.

T1: 6His-Fc-FGFR4 (human, UniProt P22455 144-369)
T1 construct: not shown: 6His tag and Fc as named in '6His-Fc-FGFR'
T1 sequence: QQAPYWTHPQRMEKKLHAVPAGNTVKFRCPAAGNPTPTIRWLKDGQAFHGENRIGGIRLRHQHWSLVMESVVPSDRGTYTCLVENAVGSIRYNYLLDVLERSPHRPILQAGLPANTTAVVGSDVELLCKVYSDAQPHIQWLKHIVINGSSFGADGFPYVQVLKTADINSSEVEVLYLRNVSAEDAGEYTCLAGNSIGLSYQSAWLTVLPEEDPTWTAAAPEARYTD

T2: 6His-Fc-FGFR1c (human, UniProt P11362 141-376)
T2 construct: not shown: 6His tag and Fc as named in '6His-Fc-FGFR'
T2 sequence: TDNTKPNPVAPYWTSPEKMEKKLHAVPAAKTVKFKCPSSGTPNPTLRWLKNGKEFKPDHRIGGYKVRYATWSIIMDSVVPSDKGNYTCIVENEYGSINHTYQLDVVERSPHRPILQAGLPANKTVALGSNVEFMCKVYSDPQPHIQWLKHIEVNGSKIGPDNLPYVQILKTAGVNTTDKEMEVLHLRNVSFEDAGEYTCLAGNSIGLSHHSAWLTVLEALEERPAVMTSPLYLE

T3: recombinant human FGFR3c Fc fusion (human, UniProt P22607 141-372)
T3 construct: also called FGFR3IIIc; not shown: Fc part of the FGFR-Fc fusion
T3 sequence: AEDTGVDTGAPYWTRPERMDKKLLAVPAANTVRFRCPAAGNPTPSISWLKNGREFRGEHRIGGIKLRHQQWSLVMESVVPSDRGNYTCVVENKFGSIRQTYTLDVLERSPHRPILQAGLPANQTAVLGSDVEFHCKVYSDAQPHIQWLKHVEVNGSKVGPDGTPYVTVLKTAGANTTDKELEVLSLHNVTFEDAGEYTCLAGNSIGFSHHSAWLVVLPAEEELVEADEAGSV

T4: recombinant human FGFR1c Fc fusion (human, UniProt P11362 141-376)
T4 construct: also called FGFR1IIIc; not shown: Fc part of the FGFR-Fc fusion
T4 sequence: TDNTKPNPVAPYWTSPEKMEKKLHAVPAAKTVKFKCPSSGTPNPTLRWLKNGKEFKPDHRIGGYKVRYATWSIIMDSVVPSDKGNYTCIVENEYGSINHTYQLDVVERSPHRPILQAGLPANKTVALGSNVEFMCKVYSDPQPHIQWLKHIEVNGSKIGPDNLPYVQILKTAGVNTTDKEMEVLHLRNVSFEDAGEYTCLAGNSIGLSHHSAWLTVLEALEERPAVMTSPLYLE

T5: recombinant human FGFR4 Fc fusion (human, UniProt P22455 144-369)
T5 construct: 19 used; also called FGFR4c; not shown: Fc part of the FGFR-Fc fusion
T5 sequence: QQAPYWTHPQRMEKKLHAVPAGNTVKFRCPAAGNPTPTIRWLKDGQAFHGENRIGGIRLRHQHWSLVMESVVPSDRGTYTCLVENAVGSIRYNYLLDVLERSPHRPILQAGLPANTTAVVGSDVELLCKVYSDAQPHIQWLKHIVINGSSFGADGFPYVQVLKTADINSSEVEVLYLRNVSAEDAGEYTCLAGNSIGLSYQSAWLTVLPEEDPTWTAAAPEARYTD

T6: soluble FGFR4 receptor protein (human, UniProt P22455 144-369)
T6 sequence: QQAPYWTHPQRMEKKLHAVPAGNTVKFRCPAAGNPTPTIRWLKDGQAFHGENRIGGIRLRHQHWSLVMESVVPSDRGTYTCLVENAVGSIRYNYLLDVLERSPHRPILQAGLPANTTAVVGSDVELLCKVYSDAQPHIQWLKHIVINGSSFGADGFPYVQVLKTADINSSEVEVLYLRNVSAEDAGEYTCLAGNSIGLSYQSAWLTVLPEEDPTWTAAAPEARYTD

T7: soluble FGFR1c receptor protein (human, UniProt P11362 141-376)
T7 sequence: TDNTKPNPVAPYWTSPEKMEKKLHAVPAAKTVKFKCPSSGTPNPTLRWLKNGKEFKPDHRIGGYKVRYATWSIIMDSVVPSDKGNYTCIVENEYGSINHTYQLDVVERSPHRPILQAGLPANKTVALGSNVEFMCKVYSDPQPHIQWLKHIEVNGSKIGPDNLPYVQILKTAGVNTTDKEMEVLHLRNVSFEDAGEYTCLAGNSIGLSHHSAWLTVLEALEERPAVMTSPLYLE

T8: soluble FGFR3c receptor protein (human, UniProt P22607 141-372)
T8 sequence: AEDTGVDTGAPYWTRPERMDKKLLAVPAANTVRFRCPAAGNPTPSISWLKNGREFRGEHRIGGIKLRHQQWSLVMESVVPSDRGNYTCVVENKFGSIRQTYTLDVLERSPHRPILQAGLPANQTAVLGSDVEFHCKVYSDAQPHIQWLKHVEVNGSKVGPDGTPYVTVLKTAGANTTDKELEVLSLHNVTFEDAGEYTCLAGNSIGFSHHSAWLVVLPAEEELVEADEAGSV


Key:
6His-Fc-FGFR4 = target: T1, 6His-Fc-FGFR4; assay: competition ELISA, blocks 6His-Fc-FGFR4 binding to coated FGF2
Description: (§1) ELISA plates were coated with 50 ug/ml Heparin Sulfate (HSPG) (Sigma Aldrich) and incubated overnight at room temperature. Plates were then washed extensively with PBS containing 0.05% v/v Tween20 (PBST). Plates were then blocked with 2.5% BSA in PBST for one hour and washed extensively as before. 40-60 μL of FGF1 or FGF2 was then added to each well at 40 μg/ml and allowed to bind at room temperature for 2 hours. Plates were then washed extensively with PBST as before. Stock solutions of each 6His-Fc-FGFR (FGFR1-4) were prepared at 500 ng/ml in 2% v/v BSA-PBST and each antibody was prepared as a 2×-dilution series in 2% v/v BSA-PBST. Antibodies dilution series and 6His-Fc-FGFR1-4 were diluted in a 1:1 fashion and immediately added to the relative wells of the plate and allowed to bind for 2 hours at room temperature. Plates were washed extensively as before with PBST and the remaining fraction of bound 6His-Fc-FGFR was detected using a polyclonal-anti-His-6-HRP conjugated antibody (Abcam) for one hour at room temperature. After extensive washing with PBST, 50 μl of Pierce Chemiluminescent substrate (Thermo Fisher Scientific, Rockford, USA) was added and plates were measured on an Envision plate reader (Perkin Elmer). Raw data was background corrected and plotted using Prism software. […]

FGFR1 on tumour cells = FGFR1 on tumour cells (UniProt P11362 22-822); assay: cell-based or functional assay
6His-Fc-FGFR1c = target: T2, 6His-Fc-FGFR1c; assay: competition ELISA, blocks 6His-Fc-FGFR1c binding to coated FGF2
Description: as §1

[1] = target: T3, recombinant human FGFR3c Fc fusion; assay: solid phase ELISA on coated FGFR-Fc
Description: (§2) For the ELISA assay, the ability of each mAb to cross react with the […] FGF receptors was tested across a concentration curve in order to determine the relative binding across FGFR1-4. FGFR2IIIb was used as a negative control. Black 384-well Maxisorp plates were coated overnight with FGFR-Fc fusions in PBS to 1 ug/ml before washing and blocking with 75 ul/well Pierce Protein Free (PBS) Blocking Buffer for 1 hour at RT. Antibody dilutions were prepared freshly in 1% BSA- PBS+0.05% Tween20 and 25 ul of each antibody was added to wells in duplicate. Plates were incubated at RT for 2 hours, followed by addition of detection antibody at 50 ng/ml in 1% BSA PBS, 0.05% Tween20. ECL substrate (Pierce) was added and plates were read on the EnVision plate reader.

[2] = target: T4, recombinant human FGFR1c Fc fusion; assay: solid phase ELISA on coated FGFR-Fc
Description: as §2

[3] = target: T9, recombinant human FGFR2c Fc fusion (human, UniProt P21802 148-377); assay: solid phase ELISA on coated FGFR-Fc
T9 construct: also called FGFR2IIIc; not shown: Fc part of the FGFR-Fc fusion
Description: as §2

[4] = target: T5, recombinant human FGFR4 Fc fusion; assay: solid phase ELISA on coated FGFR-Fc
Description: as §2

[5] = target: soluble FGFR2c receptor protein (human, UniProt P21802 148-377); assay: BLI Octet RED96, antibody on anti-hIgG Fc tip
Description: (§3) Briefly, the Pall ForteBio Octet RED96 Bio-Layer Interferometry system was used to determine the specificity of anti-FGFR antibodies for FGFR1c, FGFR2c, FGFR3c, and FGFR4. The antibodies and soluble receptor proteins were prepared in PBS at a concentration of 300 nM. First, the candidate antibodies were immobilized on the surface of anti-human IgG Fc biosensor tips for 120 seconds. After immobilization, the biosensors were dipped in PBS solution for 60 seconds (baseline step) to assess assay drift, and determine loading level of antibodies. The baseline step was followed by an association step of 300 seconds wherein the binding interaction between the immobilized antibodies and soluble receptors was measured. Following the association step, the biosensors were dipped into PBS buffer for 600 seconds to measure the dissociation of the bound receptor proteins from the immobilized antibodies. Each binding response was measured and reported real time on a sensorgram trace. For data analysis, a simple 1:1 binding model was used which measures the rate of complex formation of one immobilized antibody and one soluble receptor protein.

[6] = target: T6, soluble FGFR4 receptor protein; assay: BLI Octet RED96, antibody on anti-hIgG Fc tip
Description: as §3

[7] = target: T7, soluble FGFR1c receptor protein; assay: BLI Octet RED96, antibody on anti-hIgG Fc tip
Description: as §3

[8] = target: T8, soluble FGFR3c receptor protein; assay: BLI Octet RED96, antibody on anti-hIgG Fc tip
Description: as §3

Chain of soluble FGFR2c receptor protein (P21802 148-377): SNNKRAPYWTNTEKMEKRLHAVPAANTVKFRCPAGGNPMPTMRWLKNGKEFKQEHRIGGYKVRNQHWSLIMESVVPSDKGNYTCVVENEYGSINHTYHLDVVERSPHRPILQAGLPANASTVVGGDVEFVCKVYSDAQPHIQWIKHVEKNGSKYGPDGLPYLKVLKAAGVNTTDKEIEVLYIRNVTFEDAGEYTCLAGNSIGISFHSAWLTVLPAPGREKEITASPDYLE
Chain of FGFR1 on tumour cells (P11362 22-822): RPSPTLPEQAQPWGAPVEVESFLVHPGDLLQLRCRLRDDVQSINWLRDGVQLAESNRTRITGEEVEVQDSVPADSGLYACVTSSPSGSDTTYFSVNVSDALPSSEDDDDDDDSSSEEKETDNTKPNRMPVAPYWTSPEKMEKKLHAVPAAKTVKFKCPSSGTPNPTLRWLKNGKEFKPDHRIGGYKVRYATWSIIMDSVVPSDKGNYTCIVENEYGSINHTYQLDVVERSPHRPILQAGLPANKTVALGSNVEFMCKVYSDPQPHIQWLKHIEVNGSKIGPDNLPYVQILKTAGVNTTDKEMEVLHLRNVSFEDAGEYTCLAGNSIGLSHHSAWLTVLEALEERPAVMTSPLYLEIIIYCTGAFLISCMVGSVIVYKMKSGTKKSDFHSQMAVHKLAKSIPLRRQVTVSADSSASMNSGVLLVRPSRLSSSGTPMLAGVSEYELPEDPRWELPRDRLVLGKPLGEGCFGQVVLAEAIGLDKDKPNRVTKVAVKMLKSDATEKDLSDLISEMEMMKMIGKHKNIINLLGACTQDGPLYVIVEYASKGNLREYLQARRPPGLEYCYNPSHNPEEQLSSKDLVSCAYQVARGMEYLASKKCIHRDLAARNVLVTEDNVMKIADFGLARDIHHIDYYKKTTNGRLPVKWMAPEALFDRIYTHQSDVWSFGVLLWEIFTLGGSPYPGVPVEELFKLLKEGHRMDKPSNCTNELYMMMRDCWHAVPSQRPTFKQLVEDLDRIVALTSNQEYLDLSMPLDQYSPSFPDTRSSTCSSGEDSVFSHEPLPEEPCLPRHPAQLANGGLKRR
T9 sequence (P21802 148-377): as the sequence (P21802 148-377) above

| IC50 (6His-Fc-FGFR4) | IC50 of pERK inhibition (AlphaScreen SureFire) in NCI-H1581 cells (FGFR1 on tumour cells) | IC50 (6His-Fc-FGFR1c) | EC50 [1] | EC50 [2] | EC50 [3] | EC50 [4] | Kd [5] | koff [5] | kon [5] | Kd [6] | koff [6] | kon [6] | Kd [7] | kon [7] | Kd [8] | koff [8] | kon [8] | koff [7] | Binder |
| --- | --- | --- | --- | --- | --- | --- | --- | --- | --- | --- | --- | --- | --- | --- | --- | --- | --- | --- | --- |
| 25.7 nM | 4.12 nM | 3.35 nM | 0.129 nM | 0.0112 nM | 0.0147 nM | 7.56 nM | 10.3 nM and 11.8 nM and 11.5 nM | 0.00193 s⁻¹ and 0.00234 s⁻¹ and 0.00235 s⁻¹ | 183000 M⁻¹ s⁻¹ and 199000 M⁻¹ s⁻¹ and 205000 M⁻¹ s⁻¹ | 11.2 nM and 7.35 nM and 7.88 nM | 0.00124 s⁻¹ and 0.00091 s⁻¹ and 0.00101 s⁻¹ | 98200 M⁻¹ s⁻¹ and 124000 M⁻¹ s⁻¹ and 128000 M⁻¹ s⁻¹ | 13.7 nM and 4.72 nM and 7.39 nM | 76500 M⁻¹ s⁻¹ and 48900 M⁻¹ s⁻¹ and 44600 M⁻¹ s⁻¹ | 8.42 nM and 8.59 nM and 8.21 nM | 0.00108 s⁻¹ and 0.00105 s⁻¹ and 0.00102 s⁻¹ | 121000 M⁻¹ s⁻¹ and 123000 M⁻¹ s⁻¹ and 124000 M⁻¹ s⁻¹ | – | Ab15 (antibody, human IgG2, kappa, V domains shown, Format in each assay not spelled out; also called FGF#26) VH: EVQLLESGGGVVQPGRSLRLSCAASGFTFSSYAMHWVRQAPGKGLEWVAVISYDGSNKYYADSVKGRFTISRDNSKNTLSLQMNSLRVEDTAIYYCVRGAGRGYTYGPDGFDIWGQGTMVTVSS VL: DIVMTQTPLSLSVTPGQPASISCTSSRSLLHSDGKTYVYWYVQKSGQPPQLLIYELSNRFSGVPDRFSGSGSRTDFTLKISRVEAEDVGVYYCMQYIEAPLTFGGGTKVEIKR |
| ~7.32 nM | 0.385 nM | 3.83 nM | 0.0687 nM | 0.0117 nM | 0.0224 nM | 0.31 nM | 6.93 nM | 0.00188 s⁻¹ | 254000 M⁻¹ s⁻¹ | 12.5 nM | 0.00169 s⁻¹ | 117000 M⁻¹ s⁻¹ | 14.5 nM | 111000 M⁻¹ s⁻¹ | 15.4 nM | 0.00239 s⁻¹ | 154000 M⁻¹ s⁻¹ | 0.00165 s⁻¹ | Ab60 (antibody, human IgG2, kappa, V domains shown, format in the assays not spelled out) VH: EVQLLESGGGVVQPGRSLRLSCAASGFDFAGYAMHWVRQAPGKGLEWVAVISYDGSNKYYADSVKGRFTISRDNSKNTLSLQMNSLRVEDTAIYYCVRGAGRGLTYGPDGFDIWGQGTMVTVSS VL: DIVMTQTPLSLSVTPGQPASISCTSSRSLLHSDGKTYVYWYVQKSGQPPQLLIYELSNRFSGVPDRFSGSGSRTDFTLKISRVEAEDVGVYYCMQYIEAPLTFGGGTKVEIKR |
